Measurements as given in the supplement of paper PMC9732359.
± gives the uncertainty stated by the source.

Experiment: protein stability index of a GFP-peptide fusion (yeast GPS) (PSI 1-4); higher = more stable; sorted into four equal gates, so the index is relative within each strain
Outline: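 For each peptide, the protein stability index sums the read frequency in every gate after multiplying it by the gate number. Read frequencies came from plasmids that were PCR-amplified from each gate and Illumina-sequenced, with reads assigned to strains by barcodes. The gates were four equal bins of GFP/Cherry fluorescence ratio applied to mid-log yeast in leucine-free medium carrying a pooled library of tiled 17-residue yeast protein peptides fused downstream of GFP on a Cherry-expressing plasmid.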

Row | Sequence | protein stability index (doa10∆) | protein stability index (pdr5∆) | protein stability index (san1∆) | protein stability index (ubr1∆)
1 | KRFLILQGEVENIAQMK [SMC4] | 3.05 ± 0.29 | 2.98 ± 0.14 | 3.2 ± 0.14 | 2.79 ± 0.098
2 | DSDMLTKSHNTVQSWLC [NUT1] | 2.53 ± 0.18 | 2.63 ± 0.22 |  | 2.87 ± 0.078
3 | ASLADVMSIESLVEVVF [FAS1] | 2.89 ± 0.08 | 2.18 ± 0.067 | 1.78 ± 0.091 | 2.97 ± 0.062
4 | GKIVGFDEFMNVVIDEA [SME1] | 3.26 ± 0.063 | 3.33 ± 0.064 | 3.36 ± 0.056 | 3.39 ± 0.05
5 | SVIPEVDREAMLKPNII [YCG1] | 3.06 ± 0.12 | 3.31 ± 0.14 | 3.08 ± 0.14 | 3.05 ± 0.12
6 | EDQKVVDKALIAEIKKT [RPL6A] | 3.37 ± 0.13 | 3.48 ± 0.084 | 3.19 ± 0.11 | 3.61 ± 0.072
7 | LQIESVTKETVHPRKSY [PRP8] |  | 3.02 ± 0.13 | 2.97 ± 0.054 | 3.11 ± 0.11
8 | GSKLEDMSKILVDQGFN [RET1] | 3.14 ± 0.066 | 3.2 ± 0.072 | 3.31 ± 0.034 | 3.29 ± 0.049
9 | LVEARSLGHQTSLITAV [MTR3] | 2.69 ± 0.08 | 1.97 ± 0.067 | 2.79 ± 0.082 | 1.25 ± 0.064
10 | LKVRKGHIAKLMATEYQ [RPB2] | 2.52 ± 0.14 | 2.33 ± 0.13 | 1.28 ± 0.19 | 1.86 ± 0.057
11 | TGWNAKTYGISDDIISQ [FAS2] | 1.99 ± 0.14 | 1.12 ± 0.12 | 1.72 ± 0.24 | 1.2 ± 0.091
12 | MMCDFGTGNNNKLNFIV [DIB1] | 1.13 ± 0.084 | 1.22 ± 0.048 | 1.96 ± 0.15 | 1.6 ± 0.061
13 | DKFRKACSSSGRETILS [SIR3] | 1.94 ± 0.042 | 2.08 ± 0.042 | 1.83 ± 0.073 | 2.64 ± 0.046
14 | DNSPSEDFMDIPKPRTA [SNF2] | 2.57 ± 0.16 | 2.83 ± 0.11 |  | 2.77 ± 0.19
15 | SKLDYIFKDKEKLVSDL [SMC1] | 2.89 ± 0.15 | 3.24 ± 0.085 | 3.27 ± 0.2 | 3.37 ± 0.083
16 | VHEWEVSKPSLLHETND [PRP8] | 3.25 ± 0.11 | 3.05 ± 0.14 |  | 3.23 ± 0.072
17 | SLYIFFTTLLESKQDGL [YML103C/NUP188] | 2.29 ± 0.12 | 1.42 ± 0.085 | 1.25 ± 0.1 | 1.19 ± 0.036
18 | PIPSSETKADGILLETI [RRP6] | 2.86 ± 0.1 | 2.36 ± 0.065 | 2.12 ± 0.1 | 2.53 ± 0.052
19 | LDKDSSQSSAAAGASVD [RPN6] | 3.47 ± 0.11 | 3.42 ± 0.078 | 3.02 ± 0.075 | 3.2 ± 0.086
20 | LLQGGAKVVVTTSRFSK [FAS2] | 2.72 ± 0.077 | 2.43 ± 0.068 | 2.72 ± 0.056 | 2.78 ± 0.047
21 | PGTNGKVKKPLKYLSVE [PRE7] |  | 3.5 ± 0.14 | 3.15 ± 0.09 | 3.24 ± 0.12
22 | SYELIKEECQIEDDGII [CSN9] | 2.77 ± 0.11 | 3.01 ± 0.088 | 3.06 ± 0.069 | 3.1 ± 0.054
23 | TNSSILLGKILPREEHD [RRP6] | 1.55 ± 0.064 | 2.18 ± 0.16 | 1.61 ± 0.25 | 1.58 ± 0.11
24 | GSQILSGVMDKSVLGDG [RPO31] | 3.49 ± 0.12 | 3.28 ± 0.12 | 3.41 ± 0.068 | 3.55 ± 0.067
25 | AYFMVGAMGLLSSAGAK [RIP1] | 1.99 ± 0.11 | 2.51 ± 0.11 | 2.06 ± 0.18 | 2.34 ± 0.091
26 | AQSVGCRVDFKNPHDII [RPL12A] | 2.15 ± 0.061 | 2.4 ± 0.078 | 2.23 ± 0.12 | 2.32 ± 0.1
27 | ADEMGLGKTIQTISLLT [SNF2] | 1.73 ± 0.092 | 2.5 ± 0.086 | 2.46 ± 0.08 | 2.41 ± 0.075

Row | Sequence | protein stability index (doa10∆) | protein stability index (pdr5∆) | protein stability index (san1∆) | protein stability index (ubr1∆)
28 | ANEQLKLFNRIVERETN [CSN12] | 2.5 ± 0.12 | 2.73 ± 0.16 | 1.71 ± 0.24 | 2.81 ± 0.15
29 | STKIIMLLLNDSVENSS [SRB8] | 2.63 ± 0.074 | 2.15 ± 0.07 | 2.6 ± 0.077 | 2.74 ± 0.088
30 | DASPDSLEALIDLCHDF [YCS4] | 2.81 ± 0.055 | 2.9 ± 0.047 | 2.86 ± 0.054 | 2.86 ± 0.041
31 | KLLKVCLTMFEDRNESV [ECM29] | 2.41 ± 0.14 | 1.99 ± 0.27 | 2.58 ± 0.078 | 2.66 ± 0.16
32 | AQSSHIRAIRKVISEIL [RPS1A] | 1.55 ± 0.017 | 1.624 ± 0.015 | 1.62 ± 0.031 | 1.748 ± 0.015
33 | LTKKKNEEINKKSLEED [SEM1] |  | 3.31 ± 0.11 | 2.77 ± 0.18 | 
34 | SINISCVQLIKCLVEKS [SWI1] | 1.78 ± 0.067 | 2.41 ± 0.055 | 2.27 ± 0.1 | 1.81 ± 0.045
35 | LYTLAQETEGTNRHTLA [SIR3] | 2.73 ± 0.077 | 2.09 ± 0.072 | 2.2 ± 0.084 | 2.52 ± 0.059
36 | LYNDADVLTLENIQEGT [CDC53] | 3.18 ± 0.1 | 3.03 ± 0.087 | 3.17 ± 0.044 | 3.2 ± 0.046
37 | TLSLPDSQDYILSINAI [SMC1] | 2.85 ± 0.041 | 2.95 ± 0.05 | 2.9 ± 0.04 | 2.87 ± 0.044
38 | KCGSVTVRLIPAPRGSG [RPS2] | 1.35 ± 0.11 | 2.07 ± 0.072 | 1.4 ± 0.17 | 1.99 ± 0.1
39 | GSEIAISSLGYRSHIFA [SWI3] | 2.63 ± 0.057 | 2.27 ± 0.048 | 2.45 ± 0.051 | 2.34 ± 0.045
40 | TFRLPKTLKLARAPKYA [RPL25] | 1.69 ± 0.076 | 1.61 ± 0.072 | 1.23 ± 0.19 | 1.19 ± 0.047
41 | RDMTYSAPIYVDIEYTR [RET1] | 2.17 ± 0.092 | 1.98 ± 0.083 | 1.79 ± 0.14 | 1.81 ± 0.069
42 | DSIPYPQIVKLFDISRE [ECM29] | 1.65 ± 0.065 | 1.3 ± 0.057 | 1.23 ± 0.073 | 2.08 ± 0.039
43 | QETQHGNITRGLAVGLA [RPN2] | 3.08 ± 0.074 | 2.55 ± 0.096 | 2.73 ± 0.062 | 2.88 ± 0.04
44 | AKGKSGVQTAYIDYSSK [RRP40] | 2.54 ± 0.24 |  |  | 2.91 ± 0.24
45 | NDIFERIATEASKLAAY [HTB1] | 1.93 ± 0.23 | 1.34 ± 0.11 | 1.19 ± 0.17 | 1.34 ± 0.24
46 | LGLGIAFAGSKNDEVLG [RPN1] | 3.09 ± 0.3 | 2.94 ± 0.15 | 2.81 ± 0.26 | 3.04 ± 0.14
47 | IFIATQLEKKIRFVCLS [BRR2] | 2.17 ± 0.2 | 1.86 ± 0.11 |  | 1.49 ± 0.074
48 | YINVSRGTDIDRINYTE [SRB5] |  |  |  | 3.02 ± 0.22
49 | KRCMDDLNPLKTLNLFK [RPO31] | 2.98 ± 0.15 | 2.99 ± 0.074 | 2.69 ± 0.12 | 2.92 ± 0.064
50 | NVDYYNVAHRIKEDIKK [SNF2] | 3.32 ± 0.065 | 3.17 ± 0.066 | 3.11 ± 0.04 | 3.02 ± 0.046
51 | KLEGSENSEPPALESSP [SNF2] | 3.09 ± 0.073 | 2.97 ± 0.064 | 3.28 ± 0.071 | 3.26 ± 0.057
52 | FSHSLTTILSFSSPAAL [NUT1] | 1.46 ± 0.031 | 1.38 ± 0.029 | 1.35 ± 0.063 | 1.32 ± 0.026
53 | AFLSFLAYRNYWTQYLG [YJL039C/NUP192] | 1.33 ± 0.057 | 1.26 ± 0.04 | 1.26 ± 0.11 | 1.26 ± 0.068
54 | VVIEKRRKKILNEIELD [GRR1] | 2.03 ± 0.14 | 2.77 ± 0.1 | 2.05 ± 0.17 | 2.96 ± 0.054
